Experimental data taken from the DeepSol protein solubility set.

Test: soluble on expression in E. coli; label from the status in PepcDB or PDB records

Sequence: MSLGNFHTMLDALLEDQEEAVLATIVQVEGSAYRKAGASMLFKKKGRRIGLLSGGCVEEDVFQRISALGDQLTSTLIPYDMRSEDDLSWGMGAGCNGIIHVHAERITQEKRRHYEKVRDCLHSGKAVTSVIKIESSHYLFLTENGHFGNWPDAPLQDIQRTVSTLHLPHFDQTTNMFIQRIEPKPRLILFGAGPDNVPLANLAADTGFSVIVTDWRPAYCTSSLFPKADQLITAFPEQMLSEFQFFPHDAAVVATHHYQHDQTIINFLFSQNLHYIGLLGSANRTKRLLSGKHPPSHFYSPVGLKIGAEGPEEIAVSVVAEIIQTRKRVAVVEGGSHHHHHH
- soluble on expression in E. coli: soluble

Sequence: MGSSHHHHHHSSGLVPRGSHMRKVKIGELINSLVSEVEAIDASDRPQGDKTKKIKAAALKYKNALFNDKRKFRGKGLEKRISANTFNSYMSRARKRFDDRLHHNFEKNVIKLSEKYPLYSEELSSWLSMPAASIRQHMSRLQAKLKEIMPLAEDLSNIKIGTKNSEAKINKLANKYPEWQFAISDLNSEDWKDKRDYLYKLFQQGSSLLEDLNNLKVNHEVLYHLQLSSAERTSIQQRWANVLSEKKRNVVVIDYPRYMQAIYDIINKPIVSFDLTTRRGMAPLAFALAALSGRRMIEIMLQGEFSVAGKYTVTFLGQAKKRSEDKGISRKIYTLCDATLFVSLVNELRSCPAAADFDEVIKGYGENDTRSENGRINAILATAFNPWVKTFLGDDRRVYKDSRAIYARIAYEMFFRVDPRWKNVDEDVFFMEILGHDDENTQLHYKQFKLANFSRTWRPNVGEENARLAALQKLDSMMPDFARGDAGVRIHETVKQLVEQDPSIKITNSTLRPFNFSTRLIPRYLEFAADALGQFVGENGQWQLKDEAPAIVLPDEEI
- soluble on expression in E. coli: soluble

Sequence: MAEDLYKRLNTVDRLFTLALDLHSHTDLAAQTLMKSGKVHSIERVETDMLYQNHDKKFHLRSREFLDFPQNYCDLIVSLLSLQLTNDTPGVLSQIKNILKPDGLFLAVMAGVGTLSELRECLLQAEIEIYGGASPRIYPFADIRAVGALLQRVGFALPVADIEDVTIRYDTMFDLINDLRAMGMQNALINRSRRPVSKRFFLRAAEIYAKRFSDLDGRIRAHFSFIWLSGWAPHPNQQKPIQPGSAQISLADVLVKQSKKT
- soluble on expression in E. coli: not soluble

Sequence: MGHHHHHHSHMANSAGSMANSAGSDKGEQYTLAVGHSLPPALESKLNEIDEISVKTFAKPEEAVDEGKADAYLNVPKEFDSYVNSMTPFKVDVYGNSIDQGSSNAMQLVQSALDQYKNEIVQQRLTNKHIDQSVIQPFTIQQKEADEEKGTSAI
- soluble on expression in E. coli: not soluble

Sequence: MIFFSVALTTLLVGLSNGCFCPPVISPSCGCGGGGYSSYSGGGYGGGYGGGAINGYATFYRDLTPFRQPYYQTASYPQYQQGPAQSLQQMYQLPNPRYIQPQAPRPQYISRPAPRPAPAPYQPPRVQERPYVQPAAPVAELAETRKNTLHDNGYGEEIERTTYTPVVTAAPVYETDAPTIVTQAPAVEEVPDFDETPVKKGEKDEFYYAYYDDKGNKVGDSRSGTTFAPENVIVEEEATVAPAPASIHMDVTTERVEVANENYDDVVEETQVPVRTSLSPSYTPEVVTSSTVLFMEPRVEAKTVAPAAHENTEVVYEDETVEYEDDGHSETSELPSTKKPQSAEFKRTVQDNQILVDAAENTGEGYRRRNAVNGVRIVKRFRHDERKIHSN
- soluble on expression in E. coli: not soluble

Sequence: MGSDKIHHHHHHMQKLMHCSIMDLRLLVAVADAGNMSKGGAVCFLAPSTASLRIKHLEAIVGTRLFRREARGVSLTRAGQIMVDHSRRCLTEIEQMQASLTPFSEDVHAQLVLYANSSAIASFLPGDLQGFLQSHPKARITLEEHLSRDVLVAVVEGRADIGILTKDEPHPDLVYFPYHEDEIVLLLAETQPWTKTEPVAFLDCLSFPFVSQQNGSAIHSFLLAKASEQGRRVDVRIQVAGFAAVASMVRSGVGVAIVPRSALAAINVEGLRVVALSDAWARRTLSLCVRRDVLGSRNYVTALVDVLRQSGDQAGVADSA
- soluble on expression in E. coli: not soluble

Sequence: MSLNKIKRITAYKIDLPLKEGSYNWSEGKSVSVFDSTVIAVETENGTIGYGECCPLGPFYLPSYAEGVRAGIKELGPHLIGLDATNLFYLNHIMDRSLKGHPYVKSPIDVACWDIKGKTAGLPVSNLLGGVYDEDFILYRAISQDQPEAMADKVKEYRDQGYRRFQLKVGGNADEDIKRIRSVAEKMETGDKLIADANTGWLTHEAVRVVNGVSDIDVYIEQPCLSYDECFAVRKKTNHPFILDESINNMRTLLKAYHDQAMDAVNIKISKFGGITKAALARDICSELGIAMTIEDTWGGDIVTAAIAHLAHTTDPKLLFTATDFNSYVTVDIASGAPKRENGRMKSSKDPGLGIKPLSEVLGDSVVDIEGHHHHHH
- soluble on expression in E. coli: not soluble

Sequence: LPPGWQSYLSPQGRRYYVNTTTNETTWERPSSS
- soluble on expression in E. coli: soluble

Sequence: SDYFRSCWGPRSPAGHRVRGSDVAGRQDGLLWYKDAGQLVTGEFSMAVVQANNLLEDQSQVESGALSMAEPGPQGTFIGVYDGHGGPETARFINDHMFHHLRRFATEHKCMSTDVIRKAFQATEEGFLSLVSKQWSLKPQIAAVGSCCLVGVICSGTLYVANLGDSRAVLGRFVKSTGEVVATQLSSEHNACYEEVRQELQASHPDDPQIVVLKHNVWRVKGLIQISRSIGDVYLKRPEYNREPLHSKFRLRETFKRPILSSEPAIAVHQIQPNDHFVIFASDGLWEHLSNQEAVDLVQNNPRNGIARRLVKVAMQEAAKKREMRYSDLKKIDRGVRRHFHDDITVIVVFLDSNAISKANWSRGPSVSLRGGGVTLPANSLAPFSTPTVLSSTY
- soluble on expression in E. coli: soluble

Sequence: MREYRITAEEGHPRIDVFLAGRPEIGLSRSRIQALIDEGQVTLNGAMPKARQAVNPGDVIVVRVPDPEPMELVPEDIPLDIVYEDEDILVVNKQRGLVVHPAAGHWTGTLVHALLDKVDDLEGIGGELRPGIVHRLDKDTTGLLVVAKSERAMASLQEQIRDHMVQRVYWALVHGNSMPDTGRIEAPIGRHPRDRKRMAVNPKTGRDAVTYFRVLERYRGYALLECRLETGRTHQIRVHLSFIGHPVVGDPLYGPRKPHLGMPPQALHARQLSFRHPASGEWMEFTVDPPADMMAVVQRLREEA
- soluble on expression in E. coli: soluble

Sequence: MGSDKIHHHHHHMHISLGPLLYCWQKQQVTDFYQQVAASQIPLVYLGEAVCSRRREFKWGDYLELAQMLKQAGKEVVISTLALIEAPSEYTELKRQVDNGEFMVEANDMAAVYLANEHKLPFVCGASINNYNRASLDILQRFGMQRFVMPVELSKAWLSQVIQQKPSFEVEVLGHGYLPLAHSARCFTARHKQLTKDHCETVCREYSKGLVAQTQEQQPLLRLNGIQTQSASCLDLRSEITTMAKMGVDVFRVSPSSLDCIATANALVDAINTPENAQHFAISSDANLERTQCNGYWFGEAGLAVHANP
- soluble on expression in E. coli: not soluble

Sequence: GPGSMLNTFMFPGQGSQAKGMGGALFDRFADLTAQADAVLGYSIRALCVDDPRDELGRTQFTQPALYVVNALTYYAKCEDSGETPDFLAGHSLGEFNALLAAGCFDFETGLKLVARRAELMSQARDGAMAAIVNASREQIERTLDEHGLVDTAIANDNTPSQLVISGPAHEIARAEALFQHDRVRYLRLNTSGAFHSKFMRPAQQAFAAHLQSFRLADPAIPVISNVSARPYENGRVSEGLAQQIASPVRWCESIRYLLALAAERGEAIEFTELGHGDVLTRLVHTIRRQTPAPAAAATSARARPTPPGEPERPAQQTAAAPRASDSASASLGAAERVAAWNRDYPVGTRVRSSLIHDDVLETRTPATVLFGHRAAVYMKGYNGYFDLAEVTPA
- soluble on expression in E. coli: soluble

Sequence: MSLISVIMPVYNCEKYLEESIESILKQTYRDFEFIIVNDGSNDKSIDIINKYANDDNRIVVVSRDNNMGMVYSLNEGIDRAKGSYVARMDADDIALPERFERQIEYLNKNKDVDILACKVEAFGDVSREQKLEREHWYNVDLNNSESIESLFLENCYIAHPSVMMKMSVLKALGGYNLNYKRTEDYNLWLRAIAKGYKIAMLEEKLMKIRLHNDSKIHRDAEGFSSIRDIIQSRLEYVKEKLKLKDFSYVIWGASNGGKIAYEKIKEVFPNAKLNGYIDKFKTGKFEGVDIFYPEDLSKMKVDYVFIATLPGCKEAKGILTKNNFVPIKDFLVLCEGHHHHHH
- soluble on expression in E. coli: soluble

Sequence: PRGSHMIILAFDIFGTVLDTSTVIQEFRNKQLEYTWLLTIMGKYVEFEEITKITLRYILKVRGEESKFDEELNKWKNLKAYEDTKYLKEISEIAEVYALSNGSINEVKQHLERNGLLRYFKGIFSAESVKEYKPSPKVYKYFLDSIGAKEAFLVSSNAFDVIGAKNAGMRSIFVNRKNTIVDPIGGKPDVIVNDFKELYEWILRYK
- soluble on expression in E. coli: soluble

Sequence: MNSFKKFLNKKRVQNHFKKSGEGVRLSSGESSSQPSAHAGAAQGGQIDRVAAADIAAQAAFKRMQKNEPQQNAGKRRIQMIAKRELEEERRQVEDLNISGTSSLQQPDREQHLEHSSAISRVLYTSELLGEHHIRSKADLLEDIKNFLSDQISEADDENDKVIAAVLMLYSLNKKHPKETAIETICKYCQNILEHPGEDKYKSIRLGNKAFQERVASVVGGRAFLEAVGFTEKSEGEDKFLVFTKPSDVHLVEALEALKDGQAVPIKVARNLEIFKLKEGQKPKAPKLADDFYNLSTAELKAEQRNKEMQVERMLTLRTKEMRQKDEQMTNYRYKYTLIRVRLPGNLLMQGVFGCHEPFSAVRVFVASTLSDALSTSEFTLRDAASQLVEDESASLAQLSLAPAALLHVVFAENLSDYGQIVADEHIEIIQELEASD
- soluble on expression in E. coli: not soluble

Sequence: MSLMYSRKFQILKENIGLYHGDFMDFEVYDTEYMSIIFVKDRLDYTGKEIEPLWAFKTFDIQKDSIVVFRGRMEVTTENMKDLKDIKREKDIKTPIKSEDAINFVVEHFDVIDLKTIYLRQRLLVFIAKEVIESYNIKLKRDGDDLYFEDKKLSVCIACKGTVSAKIHLGINVKSKGAEHVKIIGLEDLGIKDIDKVMREIAINYAKEIDKIERDLRKTLPLIEGHHHHHH
- soluble on expression in E. coli: soluble

Sequence: MGSDKIHHHHHHIRMKINLGVVGAGIASRELHLPALRKLSDLFTVVAVNSRTRKKAEEFAGIVGGDVRVFDSYEEMLSSDSVDAVVLAVPISLNPKMIIAARRANKPVICEKPVAASVKEAVPLLRLPGSSPVYIAENYRHIEVYEKAAELLKEGRIGIPLAFSWLKWVDFGQDNKYVQTKWRQTPEHVGGFISDGGVHDVAALRKTLGDVEEVSGFTKKSLDYLGAENCVVFNMTLENGVIGNYSVVYGAASPLNRFEIVGTDGLMLVDKDGATIEIFAADREKIFVNKTDGFIEEFRDFYNVVEGEKNSLGTVGEALLDLATIEAGLVSAVEKRVVAVDSLLEES
- soluble on expression in E. coli: not soluble

Sequence: MGSDKIHHHHHHMPDNPTIATLPDSQGHNHRADVQLNQLQCDSTKPNDIRPNAIMPSAIEPNAIKHESVVAEQKQKVIFIGLPRTGTTSVSVALLEQGLKVAHMAFTKAAFMQADAISDAPCFSDFKQLDKLFPDAKFVYIERELDSWVPSMQMLLSRMLPHLDAKSGRFHPIMKRSFRHSFGVGVVENPQDEQHLIDCYQRHKTEVVNYFAGRHDLLCIDVSQQGALGQLLAFMGLAATENQQNFPKLNVGRNVASWDEYKHPNKISANASGPDKRKFFDYKI
- soluble on expression in E. coli: not soluble

Sequence: MGSDKIHHHHHHMAIVRTVLGDITPDQAGSTLTHEHIRYAYPGCELDHRCVWDFDFVAEDVGKQFEEMREGCGIKTVVELTPPEIGRHPELFAQIARRSGMNIVATTGFFPEANAMGIPFHWRRQRKEDVVNMLIRDLTEGMIYDGQKTPYRAGILKAATGSLTAKTRTPVNEKGRRIGNVETHVISAIAAAQREVGCAINTHTQPLDYAVCNPGIELLDELEEGGADPTKVIIGHAFVHPNIDQLKAICERGASVQVDHIGIPWQNDSRAQLDELIAVAMCQLADLGHLDKLVVSYDKFFSHARGPVTEEEPEQLNELVPNDYIMTEFAPRLERKGFGARELHQVMVENPKRLLAF
- soluble on expression in E. coli: not soluble
